Changes are numbered by the printed parent chain.
Assays:
Experiment in all cases: EMSA
[1] = target: T1, Drosophila SLBP 4S-4A (UniProt Q9VAN6 1-276, S269A;S271A;S273A;S275A)
T1 sequence: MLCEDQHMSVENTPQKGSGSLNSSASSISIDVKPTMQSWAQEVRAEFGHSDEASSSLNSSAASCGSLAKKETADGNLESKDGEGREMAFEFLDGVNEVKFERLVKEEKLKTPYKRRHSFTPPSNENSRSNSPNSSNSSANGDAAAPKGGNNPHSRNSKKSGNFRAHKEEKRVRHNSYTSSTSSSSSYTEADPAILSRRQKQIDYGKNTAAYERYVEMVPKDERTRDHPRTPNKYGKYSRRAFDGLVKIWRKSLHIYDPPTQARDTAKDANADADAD

[2] = target: T2, Drosophila SLBP ER (UniProt Q9VAN6 1-276, A210G;E212Q;R213C)
T2 sequence: T1 sequence with A210G, E212Q, R213C, A269S, A271S, A273S, A275S

[3] = target: T3, Drosophila SLBP 4S-4E (UniProt Q9VAN6 1-276, S269E;S271E;S273E;S275E)
T3 sequence: T1 sequence with A269E, A271E, A273E, A275E

Measured: binding result

B1: SL RNA (structured_RNA)
RNA: GUGCCAAAAAGGCUCUUUUCAGAGCCACCCA
binds: all assays above
